# Test results reported in the supplement of paper PMC9112550, “Optimization of the antimicrobial peptide Bac7 by deep mutational scanning” (BMC Biology, 2022).
# Tested on: Escherichia coli TOP10
# Test: shrunken log2 fold change of peptide-encoding DNA abundance (4.5 h post-induction vs induction); higher = less antimicrobial activity (less host growth inhibition)
# Conditions: time post-induction: 4.5 h; library: site-saturation at positions 5, 18, 19, 20
# 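Further: peptides expressed intracellularly from a pBAD plasmid library in pooled LB shake-flask culture, induced with 0.3% L-arabinose, DNA abundance read by NGS, three biological replicates, DESeq2 with apeglm shrinkage.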
row,Sequence,shrunken log2 fold change
1,RRIRWRPPRLPRPRPRPYDRPRP,0.0155
2,RRIRLRPPRLPRPRPRPAEPPRP,0.188
3,RRIRMRPPRLPRPRPRPCSFPRP,0.0622
4,RRIRHRPPRLPRPRPRPDMHPRP,-0.329
5,RRIRPRPPRLPRPRPRPINAPRP,-0.292
6,RRIRRRPPRLPRPRPRPTPLPRP,0.744
7,RRIRWRPPRLPRPRPRPIGKPRP,-0.0958
8,RRIRIRPPRLPRPRPRPNVWPRP,-0.309
9,RRIRLRPPRLPRPRPRPVAYPRP,-0.438
10,RRIRIRPPRLPRPRPRPMFNPRP,-0.923
11,RRIRHRPPRLPRPRPRPCPYPRP,-0.546
12,RRIRMRPPRLPRPRPRPHCDPRP,-0.0833
13,RRIRRRPPRLPRPRPRPSTFPRP,-0.02
14,RRIRRRPPRLPRPRPRPMCRPRP,0.37
15,RRIRWRPPRLPRPRPRPWGWPRP,0.276
16,RRIRFRPPRLPRPRPRPMHWPRP,0.325
17,RRIRQRPPRLPRPRPRPCVNPRP,0.0293
18,RRIRMRPPRLPRPRPRPHTWPRP,-0.0904
19,RRIRYRPPRLPRPRPRPMKLPRP,-0.58
20,RRIRARPPRLPRPRPRPLYTPRP,-0.0964
21,RRIRMRPPRLPRPRPRPMHYPRP,-0.221
22,RRIRQRPPRLPRPRPRPHKHPRP,-0.502
23,RRIRIRPPRLPRPRPRPWGIPRP,-0.109
24,RRIRWRPPRLPRPRPRPWACPRP,0.0611
25,RRIRRRPPRLPRPRPRPSLIPRP,-0.118

row,Sequence,shrunken log2 fold change
1,RRIRMRPPRLPRPRPRPNCGPRP,-0.216
2,RRIRKRPPRLPRPRPRPIVIPRP,-0.0175
3,RRIRQRPPRLPRPRPRPIQHPRP,0.14
4,RRIRDRPPRLPRPRPRPLWRPRP,0.152
5,RRIRARPPRLPRPRPRPPRNPRP,0.965
6,RRIRTRPPRLPRPRPRPKIKPRP,-0.561
7,RRIRMRPPRLPRPRPRPNHDPRP,-0.261
8,RRIRNRPPRLPRPRPRPHSEPRP,-0.438
9,RRIRHRPPRLPRPRPRPTCAPRP,0.242
10,RRIRIRPPRLPRPRPRPEAPPRP,0.366
11,RRIRHRPPRLPRPRPRPRDNPRP,0.0766
12,RRIRIRPPRLPRPRPRPEWFPRP,0.00757
13,RRIRVRPPRLPRPRPRPCDKPRP,-0.323
14,RRIRQRPPRLPRPRPRPRDQPRP,-0.0332
15,RRIRHRPPRLPRPRPRPTQPPRP,0.306
16,RRIRMRPPRLPRPRPRPAGNPRP,0.396
17,RRIRHRPPRLPRPRPRPVAYPRP,-0.332
18,RRIRNRPPRLPRPRPRPTVHPRP,-0.514
19,RRIRCRPPRLPRPRPRPACPPRP,-0.136
20,RRIRRRPPRLPRPRPRPRNYPRP,0.143
21,RRIRPRPPRLPRPRPRPTACPRP,0.338
22,RRIRNRPPRLPRPRPRPVVHPRP,-0.165
23,RRIRDRPPRLPRPRPRPYCVPRP,0.00706
24,RRIRMRPPRLPRPRPRPWRIPRP,-0.0845
25,RRIRCRPPRLPRPRPRPCITPRP,-0.0767

row,Sequence,shrunken log2 fold change
1,RRIRGRPPRLPRPRPRPIRAPRP,0.602
2,RRIRMRPPRLPRPRPRPNMNPRP,-0.056
3,RRIRLRPPRLPRPRPRPFWVPRP,-0.11
4,RRIRTRPPRLPRPRPRPRCGPRP,0.172
5,RRIRMRPPRLPRPRPRPCKGPRP,-0.0617
6,RRIRERPPRLPRPRPRPSFRPRP,-0.431
7,RRIRPRPPRLPRPRPRPCAYPRP,-0.311
8,RRIRPRPPRLPRPRPRPHQLPRP,0.0761
9,RRIRQRPPRLPRPRPRPNGWPRP,-0.0145
10,RRIRLRPPRLPRPRPRPESHPRP,-0.118
11,RRIRERPPRLPRPRPRPHCVPRP,0.038
12,RRIRGRPPRLPRPRPRPEDGPRP,1.31
13,RRIRPRPPRLPRPRPRPLGVPRP,0.361
14,RRIRRRPPRLPRPRPRPMKIPRP,0.186
15,RRIRCRPPRLPRPRPRPSYEPRP,-0.374
16,RRIRDRPPRLPRPRPRPPMEPRP,-0.0667
17,RRIRLRPPRLPRPRPRPLGGPRP,0.157
18,RRIRYRPPRLPRPRPRPLFYPRP,-0.335
19,RRIRMRPPRLPRPRPRPCNNPRP,0.0654
20,RRIRLRPPRLPRPRPRPYSNPRP,-0.212
21,RRIRWRPPRLPRPRPRPCKIPRP,-0.114
22,RRIRNRPPRLPRPRPRPLLDPRP,0.0489
23,RRIRGRPPRLPRPRPRPGRGPRP,0.773
24,RRIRLRPPRLPRPRPRPTSWPRP,0.199
25,RRIRWRPPRLPRPRPRPLPFPRP,-0.387
